The record followed here is the nanobody polyreactivity screen of Harvey et al. (2022).

The nature of this series: yeast display, Sf9 membrane polyspecificity reagent, FACS + sequencing; frameworks hold sequencing errors. Summed up:
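Using colony PCR, genes from sorted yeast display clones were amplified, then sequenced on MiSeq at 2 × 250 and filtered by CDR length. The clones had been stained with 10% biotinylated, detergent-solubilized Sf9 membrane reagent for 1 hour at 4 °C and sorted by FACS into low and high (top ~1%) gates on anti-HA and streptavidin fluorescence. Polyreactivity labels come from the gate of origin.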
For “QVQLVESGGGLVQAGGSLRLSCAASGRIFWYYAMGWYRPAPGKERELVATISYGGGNTYYADSVKGRFTISRDNAKNTVYLQMNSLKPEDTAVYYCARVPYAYLPYKPFQQYSYDYWGQGTQVTVSS”, the “polyreactivity (PSR sort gate)” value was “high polyreactivity”. The result for “QVQLVESGGGLVQAGGSLRLSCAASGRIFWYYAMGWYRQAPGKERELVAAITSGGSTNYADSVKGRFTISRDNEKNTVYLQMNSLKQEDTAVYYCNARWPYSGMNYWGQGTQVTVSS” reads “high polyreactivity”; that for “QVQLVESGGGLVQAGGSLRLSCAASGRIFWYYAMGWYRQAPGKERELVATISYVGGNTYYADSVKGRFTISRDNAKNTVYLQMNSLKPDDTAVYYCARVPYAYLPYKPFQQYSYDYWGQGTQVTVSS”, “high polyreactivity”; that for “QVQLVESGGGLVQAGGSLRLSCAASGRIFWYYPMGGYRQAPGKEREYVATINTSGGSTYYADSVKGRFTISRDNAKNTVYLQMNRLKPEDTAVYYCNAAYRFYRTEYYSWGQGTQVTVSS”, “low polyreactivity”. The result for “QVQLVESGGGLVQAGGSLRLSCAASGRIFWYYTMGWYRQAPGKERELVAAISRGGSTYYADSVKGRFTISRDNAKNTVYLQMNSLKPEDTAVYYCAAQESWKIYDYWGQGTQVTVSS” reads “low polyreactivity”. The result for “QVQLVESGGGLVQAGGSLRLSCAASGRIFYANTMGWYRQAPGKERELVAAITGDGSTYADSVKGRFTISRDNAKNTVYLQMNSLKPEDTAVFYCAAEVDYSAFDYWGQGTQVTVSS” reads “low polyreactivity”; that for “QVQLVESGGGLVQAGGSLRLSCAASGRIFYDYAMGWYRQAPGKERELVAAISGSGGSTYYADSVKGRFTISRDNAKNTVYLQMNSLKPEDTAVYYCNRYTTRYYPGGDYWGQGTQVTVSS”, “high polyreactivity”; that for “QVQLVESGGGLVQAGGSLRLSCAASGRIFYDYTMVWYRQAPGKERDLVATITSGGNTNYADSVKGRFTISRDNAKNTVYLPMNSLKPVDTAVYYCAPSYSAKRVKTGRVWYGYWGQGTQVTVSS”, “low polyreactivity”. Consider “QVQLVESGGGLVQAGGSLRLSCAASGRIFYEYAMGWYRQAPGKERELVAAITRGDSTYYADSVKGRCTISRDNAKNTVYLQMNSLKPEDTAVYYCNAGVFDYSGDSNYWGQGTQVTVSS”, for which the “polyreactivity (PSR sort gate)” value is listed as “low polyreactivity”.

On to “QVQLVESGGGLVQAGGSLRLSCAASGRIFYFNAMAWYRQAPGKERELVAAISGSGGDTYYADSVKGRFTISRDNAKNTVYLQMNRLKPEETAVYYCAAEVYTWGQGTQVSVSS”, for which the “polyreactivity (PSR sort gate)” value is reported as “low polyreactivity”. To “QVQLVESGGGLVQAGGSLRLSCAASGRIFYFNAMGWYRQAPGKEREFVASINSIGDSTYYADSVKGRFTISRDNAKNTVYIQMNSQKPEDTAVYYCKADHGVINYRLDYWGHGTQVTVSS” belongs “low polyreactivity”; to “QVQLVESGGGLVQAGGSLRLSCAASGRIFYFNAMGWYRQAPGKERELVAAISGSGGDTYYADTVKGRFTISRDNAKNTVYLQMNCLKPEDTAVYYCAAEVYTWGQGTQVTVSS”, “low polyreactivity”; to “QVQLVESGGGLVQAGGSLRLSCAASGRIFYFNAMGWYRQAPGKERELVAAISWRGGSTYYADSVKGRFTISRDYAKNTVYLQMNSLKPEDTAVYYCNAVLWGYWPGYDYWGQGTQVTVSS”, “high polyreactivity”. The result for “QVQLVESGGGLVQAGGSLRLSCAASGRIFYFNGMGWDRQAPGKERELVAAITWNTGSTYYADSVKGRFTISRDNAKNTVYLQMNSLKPEDTAVYYCNAPWAGQHPTLWKGGYWGQGTQVTVSS” reads “low polyreactivity”. To “QVQLVESGGGLVQAGGSLRLSCAASGRIFYFNTMGWYRQAPGKERELVAAISRSGTSTYYADSVKGRFTISRDNAKNTVYLQMNSLKPEDTAVYYCAAVKSYYKLDYWGQGTQVTVSS” belongs “high polyreactivity”.

With “QVQLVESGGGLVQAGGSLRLSCAASGRIFYFYAMGWYRQAPGKERELVAAISTSGGSTYYADSVKGRFTISRDNAKITVYLQMNSLKPEDTAVYYCAARFRYYGSEYDYWGQGTQVTVSS”, the “polyreactivity (PSR sort gate)” value is recorded as “low polyreactivity”.

As for “QVQLVESGGGLVQAGGSLRLSCAASGRIFYFYAMGWYRQAPGKEREMVASISYSGGNTYYADSVKGRFTISRDNAKNTVYLQMNSLKPEDTAVYYCNVLPNTGARGYYYWGQGTQVTVSS”, the “polyreactivity (PSR sort gate)” value was “low polyreactivity”. To “QVQLVESGGGLVQAGGSLRLSCAASGRIFYFYAMVWYRQAPGKERELVAAISTSGGSTYYADSVKGRFTISRDNAKNTVYLQMNSLKPEDTAVYYCAARFRYYGSEYDYWGQGTQVTVSS” belongs “low polyreactivity”; to “QVQLVESGGGLVQAGGSLRLSCAASGRIFYGNALGWYRHAPGKERELVATISSSGGRTTYADSVKGRFTISRDNAKNTVYLPMNSLKPEDTAVYYCAAQGYWTGYDYWGQGTQVTVSS”, “high polyreactivity”.

For “QVQLVESGGGLVQAGGSLRLSCAASGRIFYGNAMGWYRQAPGKERELVAAITRSGSSTYYADSVKGRFTISRDNAKNTVYLQMNSLKPEVTAVYYCAVKYFDYVGQYAYYYWGQGTQVTVSS”, the “polyreactivity (PSR sort gate)” value is given as “high polyreactivity”. The result for “QVQLVESGGGLVQAGGSLRLSCAASGRIFYGNTMGWYRQAPGKERELVAAITIGDSTNYADSVKGRFTISRDNAKNTVYLQMNSLKPEDTEVYFCAKRNWWGYYKYDYWGQGTQVTVSS” reads “low polyreactivity”; that for “QVQLVESGGGLVQAGGSLRLSCAASGRIFYGYAMGWYRQAPGKERELVAAISKSGTRTYYADSVKGRFTISRDNAKNTVYLQMNSLKPEDTAVFYCNARGYPYDTYNEYYYWGQGTQVTVSS”, “high polyreactivity”; that for “QVQLVESGGGLVQAGGSLRLSCAASGRIFYGYAMGWYRQAPGKERELVAAISWRGGRTYYADSVKGRFTISRDNAKNTVYLQMNSLKPEDTAVYYCNKDFPPQGQLRNMYYWGQGTQVTVSS”, “high polyreactivity”. The result for “QVQLVESGGGLVQAGGSLRLSCAASGRIFYGYAMGWYRQAPGKERELVAGISYRGARTYYADSVKGRFTISRDNAKNTVYLQMNSLKPEDTAVYYCNAVPYYPFAFGALDYWGQGTQVTVSS” reads “high polyreactivity”; that for “QVQLVESGGGLVQAGGSLRLSCAASGRIFYGYTMGWYREAPGIERELVASITIRGSRTYYADSVKGRFTISRDNAKNTVYLQMTSLKPEDTAVYYCAADFVPARTVHRYDYWGQGTQVTVSS”, “low polyreactivity”; that for “QVQLVESGGGLVQAGGSLRLSCAASGRIFYGYTMGWYRQAPGKERELVAAITQRGGNTHYADSVKGRFTISRDNGKNTVYLHMNRLKPEDTAVYYCAAKYYPYVRGVQYYYWGQGTQVTVSS”, “high polyreactivity”. To “QVQLVESGGGLVQAGGSLRLSCAASGRIFYINAMGWYRQAPGKEMELVAAITGSVGSTYYADSVKGRFTISRDNAKNTVYLLMNSQKPEDTAVYYCAASDQPYNGGDGDYWGQGTQVTVSS” belongs “low polyreactivity”. On to “QVQLVESGGGLVQAGGSLRLSCAASGRIFYINDMGCYRQAPGKEREFVASITGSGGRTYYADSVKGRFTISRDNAKNTVYLQMNSLKPEDTAVYYCNADLYVGYLYYLYDYWGQVTQVTVSS”, for which the “polyreactivity (PSR sort gate)” value is on record as “low polyreactivity”. The result for “QVQLVESGGGLVQAGGSLRLSCAASGRIFYKNAMGWYRQAPGKERELVATITYSDGTTYYADSVKGRFTISRDNAKNTVYLQMNSLKPEDTAVYYCAAQTDSVESDYWGQGTQVTVSS” reads “low polyreactivity”; that for “QVQLVESGGGLVQAGGSLRLSCAASGRIFYKYAMGWYRQAPGKERELVAAISTGGTRTYYADSVKGRFTISRDNAKNTVYLQMNSLKPEDTAVYYCAARGGDKTYYYWGQGTQVTVSS”, “high polyreactivity”; that for “QVQLVESGGGLVQAGGSLRLSCAASGRIFYKYAMGWYRQAPGKERELVAAITTSGGSTYYADSVKGRFTISRDNAKNTVYLQMNSLKPEDTAVYYCARDLNGRFLTTGRGMDYWGQGTQVTVSS”, “high polyreactivity”.

For the sequence “QVQLVESGGGLVQAGGSLRLSCAASGRIFYLNVMGWYRQAPGKERELVAAITRRDVTTYADSVKGRFTISRDNAKNTVYLQMKSLKPEDTAFYYCNAVYYNWIGFDYWGQGTQVTVSS”, the “polyreactivity (PSR sort gate)” value is recorded as “low polyreactivity”. The result for “QVQLVESGGGLVQAGGSLRLSCAASGRIFYLYAMGWYRQAPGKERELVAAITWSGGSTYYADSVKGRFTISRDNAKNTVYLQMNSLKPEDTAVYYCARDDAYSDFDYDYWGQGTQVTVSS” reads “low polyreactivity”. For the sequence “QVQLVESGGGLVQAGGSLRLSCAASGRIFYLYAMGWYRQAPGKERELVARITSGSGTYYADSVKGRFTISRDNAKNTVYLQMNSLKPEDTAVYYCAAREPGVGYVGHYTGLDYWGQGTQVTVSS”, the “polyreactivity (PSR sort gate)” value is listed as “low polyreactivity”. The result for “QVQLVESGGGLVQAGGSLRLSCAASGRIFYLYAMGWYRQAPGKERELVATINTSGGITYYADSVKGRFTISRDNAKNTVYLQMNSLKPEDTAVYYCNADWEWLYFYFRPGGYWGQGTQVTVSS” reads “low polyreactivity”; that for “QVQLVESGGGLVQAGGSLRLSCAASGRIFYLYTMGWYRQAPGKEREFSTYYADSVKGRFTISRDNAKNTVYLQMNSLKPEDTAVYYCNKGSDGFTTGEGDYWGQGTQVTVSS”, “low polyreactivity”; that for “QVQLVESGGGLVQAGGSLRLSCAASGRIFYLYTMGWYRQAPGKERELVAASTRAGRTYYADSVKGRFTISRDNAKNTVYLQMNSLKPEDTAVYYCAAAFLSRVQGYDSWGQGTQVTVSS”, “high polyreactivity”. The result for “QVQLVESGGGLVQAGGSLRLSCAASGRIFYNNAMGWYRQAPGKERELVAAIDWPGGSTDYADSVKGRFTISRDNAKNTVYLQMNSLKPEDTAVYYCVAGHVPYWHGNSYDYWGQGTQVTVSS” reads “low polyreactivity”. To “QVQLVESGGGLVQAGGSLRLSCAASGRIFYNNAMGWYRQAPGKERELVASITRNGGRTYYADSVKGRFTISRDNAKNTVYLKMNSLKREDTAVYYCAIDYSRGQIRAGAYEYWGQGTQVTVSS” belongs “high polyreactivity”; to “QVQLVESGGGLVQAGGSLRLSCAASGRIFYPNAMGWYRQAPGKERELVASISRGGPTSYADSVKGRFTISRDNAKNTVYLQINSLKPEDTAVYDCAADVAWYRYRSYYWGQGTQVTVSS”, “high polyreactivity”; to “QVQLVESGGGLVQAGGSLRLSCAASGRIFYPNTMGWYIQAPGKERELVAAISRSGGSTYYTDSVKGRFTISRDNAKNTVYLQMNSLKPEDTAVYYCATVPYESRYDYWGQGTQVTVSS”, “high polyreactivity”.
